T1: human interleukin-1 receptor on cells (MRC-5 human embryonic lung fibroblasts; human blood cells) (human, UniProt P14778 18-569)
T1 sequence (looked up): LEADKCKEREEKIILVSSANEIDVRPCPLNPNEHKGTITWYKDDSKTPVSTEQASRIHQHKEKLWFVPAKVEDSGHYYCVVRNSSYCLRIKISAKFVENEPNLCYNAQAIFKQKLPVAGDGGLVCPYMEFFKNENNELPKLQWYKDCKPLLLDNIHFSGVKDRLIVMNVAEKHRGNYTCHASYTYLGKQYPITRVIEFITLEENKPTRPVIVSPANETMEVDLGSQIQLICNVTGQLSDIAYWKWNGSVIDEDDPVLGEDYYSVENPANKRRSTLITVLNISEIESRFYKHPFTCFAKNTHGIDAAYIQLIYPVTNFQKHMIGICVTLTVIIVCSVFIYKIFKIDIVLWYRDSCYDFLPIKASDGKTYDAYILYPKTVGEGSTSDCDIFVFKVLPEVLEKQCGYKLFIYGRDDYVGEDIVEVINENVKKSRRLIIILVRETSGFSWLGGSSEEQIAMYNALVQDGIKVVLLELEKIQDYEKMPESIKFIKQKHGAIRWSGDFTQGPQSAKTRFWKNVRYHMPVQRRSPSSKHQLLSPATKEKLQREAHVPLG


Target: T1, human interleukin-1 receptor on cells …
Experiment: cell-based or functional assay

| Bioassay (IC50 in relation to 2D8), 1st experiment | Bioassay (IC50 in relation to 2D8), 2nd experiment | Bioassay (IC50 in relation to 2D8), Mean | Binder |
| --- | --- | --- | --- |
| 3.1 relative to 2D8 | 1.9 relative to 2D8 | 2.5 relative to 2D8 | DEI5/4 (antibody, V domains shown) VH: QLQLQESGPGLVKPSQTLSLTCTVSGLSLTSNSITWIRQPPGKGPEWMGMIWSNGDTDYSTSLKSRLTISKDTSKSQVVLTMTNMDPVDTATYYCARYNYYFDYWGQGTLVTVSS VL: DIVLTQSPATLSLSPGERATLSCKASQNVDNRGVSYVHWYQQKPGQAPKLLIYKGSNLAFGVPARFSGSGSGTDFTLTISSLQPEDFATYYCQQSKGHPDTFGAGTKLELK |
| 3.4 relative to 2D8 | 1.2 relative to 2D8 | 2.3 relative to 2D8 | DEI5/7 (antibody, V domains shown) VH: QLQLQESGPGLVKPSQTLSLTCTVSGLSLTSNSITWIRQPPGKGPEWMGMIWSNGDTDYSTSLKSRLTISKDTSKSQVVLTMTNMDPVDTATYYCARYNYYFDYWGQGTLVTVSS VL: DIVLTQSPATLSLSPGERATLSCKASQNVDNRGVSYVHWYQQKPGQAPKLLIYKGSNLAFGVPARFSGSGSGTDFTLTISSLQPEDFATYFCQQSKGHPDTFGAGTKLELK |
| 1.6 relative to 2D8 | 2.8 relative to 2D8 | 2.2 relative to 2D8 | DEI5/9 (antibody, V domains shown) VH: QLQLQESGPGLVKPSQTLSLTCTVSGLSLTSNSITWIRQPPGKGPEWMGMIWSNGDTDYSTSLKSRLTISKDTSKSQVVLTMTNMDPVDTATYYCARYNYYFDYWGQGTLVTVSS VL: DIVLTQSPATLSLSPGERATLSCKASQNVDNRGVSYVHWYQQKPGQAPKLLIYKGSNLAFGVPSRFSGSGSGTDFTLTISSLQPEDFATYYCQQSKGHPDTFGAGTKLELK |
| 3.4 relative to 2D8 | 3.5 relative to 2D8 | 3.5 relative to 2D8 | DEI4/7 (antibody, V domains shown) VH: QLQLQESGPGLVKPSQTLSLTCTVSGLSLTSNSITWIRQPPGKGPEWMGMIWSNGDTDYNSAFTSRFTISRDNSKNTLYLQMNSLKTEDTAVYYCARYNYYFDYWGQGTLVTVSS VL: DIVLTQSPATLSLSPGERATLSCKASQNVDNRGVSYVHWYQQKPGQAPKLLIYKGSNLAFGVPARFSGSGSGTDFTLTISSLQPEDFATYFCQQSKGHPDTFGAGTKLELK |
| 5.2 relative to 2D8 | 4.1 relative to 2D8 | 4.7 relative to 2D8 | DEI4/9 (antibody, V domains shown) VH: QLQLQESGPGLVKPSQTLSLTCTVSGLSLTSNSITWIRQPPGKGPEWMGMIWSNGDTDYNSAFTSRFTISRDNSKNTLYLQMNSLKTEDTAVYYCARYNYYFDYWGQGTLVTVSS VL: DIVLTQSPATLSLSPGERATLSCKASQNVDNRGVSYVHWYQQKPGQAPKLLIYKGSNLAFGVPSRFSGSGSGTDFTLTISSLQPEDFATYYCQQSKGHPDTFGAGTKLELK |

Reference: US20090191187A1 (published 2009)
